Assay results taken from paper PMC9967848.

Key:
Conditions in all cases: none (in vitro transcript); 20 mM Tris-HCl pH 8, 50 mM NaCl, 1 mM MgCl2; 5 nM tRNA, 30 min incubation; temperature not stated
[1] = tested on: EPRS linker (whole linker) (human); test: fluorescence quenching
[2] = tested on: EPRS linker R1R2R3 (human); test: fluorescence anisotropy
EPRS linker R1R2 (human) = test: fluorescence anisotropy
EPRS linker R2R3 (human) = test: fluorescence anisotropy

Substance	Kd [1]	Kd [2]	Kd (EPRS linker R1R2 (human))	Kd (EPRS linker R2R3 (human))
bovine tRNATrp	511 nM			
human tRNAGlu	886 nM			
human tRNALys3	589 nM	43 nM	209 nM	> 10000 nM
human tRNAPro	449 nM			
